{"source": "paper PMC12650235", "about": "“Optimized Aptamer-Conjugated Gold Nanoparticles for Specific Detection of GII.4 Human Norovirus in Feces”", "key": {"[1]": {"tested_on": "GII.4 HuNoV VLP (VP1 capsid) (Human norovirus GII.4 Hu/GII.4/DBM15-156/2015)", "assay": "BLI", "conditions": "BLI: PBST + 5 mM Mg2+, biotin-aptamer 100 nM, VLP 18.75-150 nM, Octet RED96, ELASA: VLP 3 ug/mL, aptamer 1 uM, CD: 10 mM Tris-HCl pH 7.4, 1.0 mM NaCl, 0.05 mM …"}, "[2]": {"tested_on": "GII.4 HuNoV VLP (VP1 capsid) (Human norovirus GII.4 Hu/GII.4/DBM15-156/2015)", "assay": "ELASA", "conditions": "BLI: PBST + 5 mM Mg2+, biotin-aptamer 100 nM, VLP 18.75-150 nM, Octet RED96; ELASA: VLP 3 ug/mL, aptamer 1 uM; CD: 10 mM Tris-HCl pH 7.4, 1.0 mM NaCl, 0.05 mM …"}, "GII.2 HuNoV VLP": {"target": "GII.2 HuNoV VLP (Human norovirus GII.2 Env/CHN/2016, UniProt A0A291L9K1 1-542)", "assay": "AuNP colorimetric competition; A620/A520 < 0.4; BLI: PBST + 5 mM Mg2+, biotin-aptamer 100 nM, VLP 18.75-150 nM, Octet RED96; ELASA: VLP 3 ug/mL, aptamer 1 uM; CD: 10 mM Tris-HCl pH 7.4, 1.0 mM NaCl, 0.05 mM MgCl2, room temperature", "conditions": "protein: recombinant; tags: His; chain copies: 180; label: biotin (5' in the colorimetric assay); stem-loops"}, "GII.17 HuNoV VLP": {"target": "GII.17 HuNoV VLP (Human norovirus GII.17 …, UniProt A0A0E3X5I8 1-540)", "assay": "AuNP colorimetric competition; A620/A520 < 0.4; BLI: PBST + 5 mM Mg2+, biotin-aptamer 100 nM, VLP 18.75-150 nM, Octet RED96; ELASA: VLP 3 ug/mL, aptamer 1 uM; CD: 10 mM Tris-HCl pH 7.4, 1.0 mM NaCl, 0.05 mM MgCl2, room temperature", "conditions": "protein: recombinant; chain copies: 180; label: biotin (5' in the colorimetric assay); stem-loops"}}}
{"molecule": "AACACGACCCACGTACCTGTGCGAGACACAGACCACCAAGGTGGGC [AP4-11]", "values": [{"measurement": "Kd", "setting": "[1]", "result": 2.28, "unit": "nM"}]}
{"molecule": "AACACGACCCACGTACCTGTGTGAGACACAGACCACCAAGGTGGGC [AP4-11-2 (C22T)]", "values": [{"measurement": "binding signal (% of AP4-11 (46% loss))", "setting": "[2]", "result": 54}, {"measurement": "Kd", "setting": "[1]; 5 mM Mg2+, poor fit R2=0.86", "result": 4.62, "unit": "nM"}]}
{"molecule": "AACACGACCCACGTACCTGTGCGAGACACAGACCACCAAGGTGGGC (structured_DNA)", "note": "[AP4-11]", "values": [{"measurement": "binding result", "setting": "GII.2 HuNoV VLP", "result": "no binding"}, {"measurement": "binding result", "setting": "GII.17 HuNoV VLP", "result": "no binding"}]}
